Residue numbers refer to the chain shown, from its start.
T1: hNPR3 (human, UniProt P17342)
T1 chain: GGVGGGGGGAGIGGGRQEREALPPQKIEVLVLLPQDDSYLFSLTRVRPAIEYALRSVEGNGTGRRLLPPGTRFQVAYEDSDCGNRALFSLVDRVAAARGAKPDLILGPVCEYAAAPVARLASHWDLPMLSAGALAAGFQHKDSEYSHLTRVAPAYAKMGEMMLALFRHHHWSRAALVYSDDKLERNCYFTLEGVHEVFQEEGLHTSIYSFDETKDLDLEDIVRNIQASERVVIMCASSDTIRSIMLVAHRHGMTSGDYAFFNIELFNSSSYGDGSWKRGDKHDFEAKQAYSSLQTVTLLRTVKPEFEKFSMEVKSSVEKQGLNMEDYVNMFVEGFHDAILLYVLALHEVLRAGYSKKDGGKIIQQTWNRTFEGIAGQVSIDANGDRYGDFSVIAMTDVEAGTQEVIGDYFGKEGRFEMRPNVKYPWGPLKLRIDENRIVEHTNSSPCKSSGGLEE

T2: hNPR2 (human, UniProt P20594)
T2 chain: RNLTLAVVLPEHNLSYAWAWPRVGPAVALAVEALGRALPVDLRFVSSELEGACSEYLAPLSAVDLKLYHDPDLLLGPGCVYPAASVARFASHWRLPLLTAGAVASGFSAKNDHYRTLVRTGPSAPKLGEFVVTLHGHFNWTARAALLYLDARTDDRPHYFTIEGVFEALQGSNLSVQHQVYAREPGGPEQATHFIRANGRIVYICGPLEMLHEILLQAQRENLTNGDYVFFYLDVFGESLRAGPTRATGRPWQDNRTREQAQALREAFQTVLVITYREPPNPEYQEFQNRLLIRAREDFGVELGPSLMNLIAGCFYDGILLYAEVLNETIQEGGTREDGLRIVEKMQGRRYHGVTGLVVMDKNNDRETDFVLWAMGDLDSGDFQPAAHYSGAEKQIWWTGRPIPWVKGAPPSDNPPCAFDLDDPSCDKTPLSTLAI

B1: RC25 V (antibody, V domains shown)
VH: QVQLVQSGAEVKKPGASVKVSCKASGYTFTNSWIGWFRQAPGQGLEWIGDIYPGGGYTNYNEIFKGKATMTADTSTNTAYMELSSLRSEDTAVYYCSRGIPGYAMDYWGQGTLVTVSS
VL: DIQMTQSPSSLSASVGDRVTMSCKSSQSLLNSGDQKNYLTWYQQKPGKAPKLLIYWASTGESGVPSRFSGSGSGTDFTFTISSLQPEDIATYYCQNDYSYPWTFGQGTKVEIKR
B2: Hu135H3L1 (antibody, V domains shown)
VH: DVKLVESGEGLVKPGGSLRLSCAASGFSISTYGMSWVRQAPGKRLEWVAYINSGGNYIYYADSVKGRFTISRDNAKNSLYLQMNSLRAEDTAVYYCTRDRTTIVVHWYFDVWGQGTTVTVSS
VL: DIQLTQSPSSLSASVGDRVTITCSASSSLNFMHWYQQKPGKSPKRWIYDTSKLASGVPSRFSGSGSGTDYTLTISSLQPEDFATYYCHQRSSTFGGGTKVEIK
B3: Hu102H4L6 (antibody, V domains shown)
VH: B2 VH with S28T, I29F, T31S, G33A, N52S, S53R, N56D, T91S, R100Q, I103V
VL: DIQLTQSPSSLSASVGDRVTITCSASSSINYMHWYQQKPGKSPKRWIYDTSKLASGVPSRFSGSGSGTDYTLTISSLQPEDFATYYCHQRNSYTFGGGTKVEIK
B4: Hu128H3L1-6 (antibody, V domains shown)
VH: EVQLVQSGAEVKKPGASVKVSCKASGYTFTSYWMHWVRQAPGQGLEWMGRIDPNSGVTKYNEKFKSRVTLTVDKPSSPAYMELSSLRSEDTAVYYCARSSYLGRYFDVWGQGTTVTVSS
VL: EIVLTQSPATLSLSPGERATLKCSATSSVSYMYWYQQKPGQAPRLLIYDTYNLGSRIPARFSGSGSGTDYTLTISRLEPEDFAVYYCQQWSSYPPTFGQGTKLEIK
B5: Hu140H5L5-11 (antibody, V domains shown)
VH: B4 VH with E1Q, S100G, Y101G, G103R
VL: B4 VL with T20Q, K22S, T26S, G54A, R56G, I57V, A59D, D69S, Q99A

Target: T1, hNPR3
Assay: ELISA

Row | binding result | Binder
1 | no binding | B1
2 | no binding | B2
3 | no binding | B3
4 | no binding | B4
5 | no binding | B5

target: hNPR1 antigen (human); assay: ELISA
Sequence (chain, as listed by the source): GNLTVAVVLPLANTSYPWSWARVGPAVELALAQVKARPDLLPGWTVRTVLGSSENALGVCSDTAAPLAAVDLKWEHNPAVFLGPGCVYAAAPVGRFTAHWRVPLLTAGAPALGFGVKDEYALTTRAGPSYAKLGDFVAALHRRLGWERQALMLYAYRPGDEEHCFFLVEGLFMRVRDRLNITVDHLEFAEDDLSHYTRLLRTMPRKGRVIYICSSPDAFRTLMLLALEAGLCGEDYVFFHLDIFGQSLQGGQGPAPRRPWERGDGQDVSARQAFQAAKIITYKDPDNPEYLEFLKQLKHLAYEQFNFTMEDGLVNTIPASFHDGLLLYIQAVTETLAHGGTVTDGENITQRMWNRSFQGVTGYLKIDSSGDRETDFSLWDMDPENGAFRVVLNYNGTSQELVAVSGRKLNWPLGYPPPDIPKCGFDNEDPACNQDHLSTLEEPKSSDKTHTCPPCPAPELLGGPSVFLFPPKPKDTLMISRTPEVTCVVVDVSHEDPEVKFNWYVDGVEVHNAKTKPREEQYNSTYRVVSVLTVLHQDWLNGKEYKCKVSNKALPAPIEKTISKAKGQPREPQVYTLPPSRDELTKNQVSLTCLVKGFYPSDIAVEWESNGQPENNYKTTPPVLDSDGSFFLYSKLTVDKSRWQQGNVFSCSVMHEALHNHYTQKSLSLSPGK

Row | binding result | Binder
6 | no binding | B1

Target: T2, hNPR2
Assay: ELISA

Row | binding result | Binder
7 | no binding | B1
8 | no binding | B2
9 | no binding | B3
10 | no binding | B4
11 | no binding | B5
